Data set [1] in a line: Pharmacokinetic study of CLDN18.2-linker conjugates (serum ELISA, NCA). The class given is in vivo, BALB/c mice. As to conditions: for blood circulation of the CLDN18.2 conjugates: FIG. 2, CLDN18.2 conjugate of the named linker compared to the control group; for AUCall / Cl / T1/2 / Vd: BALB/c mice, intravenous, about 1 mg/kg, serum, over 48 hours. Here is the method: The in vivo pharmacokinetic profile of the CLDN18.2-linker conjugates was analyzed. Briefly, BALB/c mice were administered with the conjugates by intravenous injection at a dose of about 1 mg/kg. Then, whole blood of the animal was collected at different time points over 48 hours.
The whole blood was collected into a tube without anticoagulation and maintained at room temperature for more than 30 minutes, followed by centrifuge at approximately 5000 rpm at 4° C. for 5 minutes to obtain serum. Concentration of the conjugates in serum was then measured by ELISA using HRP-labeled goat anti-alpaca IgG VHH domain secondary antibody. The data was further analyzed using PK Solver software, and the […] (NCA) was used to evaluate the pharmacokinetic parameters, as shown in Table 7 and FIG. 2.
A general note: ELISA stands for enzyme-linked immunosorbent assay.

Data set [2] is described as follows: Pharmacokinetic study of FAP-linker conjugates (serum ELISA, NCA). The class given is in vivo, BALB/c mice. As to conditions: BALB/c mice, intravenous, about 1 mg/kg, serum, over 48 hours. As to the method: he in vivo pharmacokinetic profile of the FAP-linker conjugates was analyzed. Briefly, BALB/c mice were administered with the conjugates by intravenous injection at a dose of about 1 mg/kg. Then, whole blood of the animal was collected at different time periods over 48 hours.
The whole blood was collected into a tube without anticoagulation and maintained at room temperature for more than 30 minutes, followed by centrifugated at approximately 5000 rpm at 4° C. for 5 minutes to obtain serum. Concentration of the conjugates in serum was then measured by ELISA using HRP-labeled goat anti-alpaca IgG VHH domain secondary antibody. The data was further analyzed using PK Solver software, and the […] (NCA) was used to evaluate the pharmacokinetic parameters, as shown in Table 8 and FIG. 3.

With `Cc1ccc(CCCC(=O)NCCCCC(NC(=O)CNC(=O)CCC(C(=O)O)N2CCN(CC(=O)O)CCN(CC(=O)O)CCN(CC(=O)O)CC2)C(=O)NCc2ccc(N=C=S)cc2)cc1` (centres unmarked) [L010], in data set [1], the “blood circulation of the CLDN18.2 conjugates” value is “significantly prolonged blood circulation”.

With `CCCCCCCCCCCCC(=O)NCCCCC(NC(=O)CNC(=O)CCC(C(=O)O)N1CCN(CC(=O)O)CCN(CC(=O)O)CCN(CC(=O)O)CC1)C(=O)NCc1ccc(N=C=S)cc1` (centres unmarked) [L011], the “blood circulation of the CLDN18.2 conjugates” value in data set [1] was “significantly prolonged blood circulation”.

B1: CLDN18.2-L007: Claudin 18.2 sdAb (SEQ ID NO. 1) conjugated with functional linker L007 (conjugate)
VHH: EVQLVESGGGLVQPGGSLRLSCAASGSFFRIVAMGWYRQAPGSQRELVATITRGGSTYYADSVKGRFTISRDNAKNTLYLQMNSLRAEDTAVYYCNVRVEVPFMQPNDYWGQGTLVTVSS
modifications: functional linker L007 conjugated
Broadly, the Vd is the apparent volume that relates the amount in the body to the concentration in plasma or blood. Read a low Vd as confinement near the circulation. As for B1, in data set [1], the AUCall was found to be 33.1 ± 4.92 µg·h/mL, the Cl was determined as 0.027 ± 0.003 L/h/kg, the T1/2 came to 361 ± 73.8 min and the Vd was determined as 0.183 ± 0.014 L/kg.

B2: CLDN18.2-L006: Claudin 18.2 sdAb (SEQ ID NO. 1) conjugated with functional linker L006 (conjugate)
VHH: B1 VHH
modifications: functional linker L006 conjugated
As for B2, in data set [1], the AUCall stood at 0.650 ± 0.069 µg·h/mL, the Cl is 1.36 ± 0.132 L/h/kg, the T1/2 was 13.5 ± 0.36 min and the Vd is listed as 0.408 ± 0.026 L/kg.

B3: CLDN18.2-L003: Claudin 18.2 sdAb (SEQ ID NO. 1) conjugated with functional linker L003 (conjugate)
VHH: B1 VHH
modifications: functional linker L003 conjugated
In data set [1], B3 showed an AUCall of 0.460 ± 0.077 µg·h/mL, a Cl of 1.81 ± 0.246 L/h/kg, a T1/2 of 11.2 ± 1.56 min and a Vd of 0.431 ± 0.006 L/kg.

B4: CLDN18.2-L009: Claudin 18.2 sdAb (SEQ ID NO. 1) conjugated with functional linker L009 (conjugate)
VHH: B1 VHH
modifications: functional linker L009 conjugated
In data set [1], B4 had an AUCall of 148 ± 5.14 µg·h/mL, a Cl of 0.005 ± 0.000 L/h/kg, a T1/2 of 1490 ± 323 min and a volume of distribution (Vd) of 0.166 ± 0.023 L/kg.

B5: CLDN18.2-L012: Claudin 18.2 sdAb (SEQ ID NO. 1) conjugated with functional linker L012 (conjugate)
VHH: B1 VHH
modifications: functional linker L012 conjugated
In data set [1], B5 registered an AUCall of 2.22 ± 0.223 µg·h/mL, a Cl of 0.421 ± 0.042 L/h/kg, a T1/2 of 17.3 ± 1.14 min and a Vd of 0.151 ± 0.025 L/kg.

B6: CLDN18.2-L011: Claudin 18.2 sdAb (SEQ ID NO. 1) conjugated with functional linker L011 (conjugate)
VHH: B1 VHH
modifications: functional linker L011 conjugated
In data set [1], B6 registered an AUCall of 15.7 ± 0.816 µg·h/mL, a Cl of 0.057 ± 0.001 L/h/kg, a T1/2 of 90 ± 10.1 min and a Vd of 0.106 ± 0.008 L/kg.

B7: CLDN18.2-L008: Claudin 18.2 sdAb (SEQ ID NO. 1) conjugated with functional linker L008 (conjugate)
VHH: B1 VHH
modifications: functional linker L008 conjugated
Regarding B7, in data set [1], the AUCall turned out to be 1.88 ± 0.177 µg·h/mL, the Cl is 0.439 ± 0.022 L/h/kg, the T1/2 was found to be 38.2 ± 4.02 min and the Vd came to 0.375 ± 0.043 L/kg.

B8: CLDN18.2-L010: Claudin 18.2 sdAb (SEQ ID NO. 1) conjugated with functional linker L010 (conjugate)
VHH: B1 VHH
modifications: functional linker L010 conjugated
Take B8: in data set [1], the AUCall came to 14.5 ± 0.149 µg·h/mL, the Cl was determined as 0.061 ± 0.002 L/h/kg, the T1/2 came to 175 ± 7.02 min and the Vd came out at 0.199 ± 0.012 L/kg.

B9: CLDN18.2-DOTAGA: Claudin 18.2 sdAb (SEQ ID NO. 1) conjugated with DOTAGA, used as control for chelating imaging radioisotope (conjugate)
VHH: B1 VHH
modifications: DOTAGA chelator conjugated
In data set [1], B9 displayed an AUCall of 1.45 ± 0.149 µg·h/mL, a Cl of 0.610 ± 0.072 L/h/kg, a T1/2 of 32.9 ± 2.52 min and a Vd of 0.245 ± 0.032 L/kg.

B10: CLDN18.2-L005: Claudin 18.2 sdAb (SEQ ID NO. 1) conjugated with functional linker L005 (conjugate)
VHH: B1 VHH
modifications: functional linker L005 conjugated
Regarding B10, in data set [1], the AUCall stood at 0.881 ± 0.118 µg·h/mL, the Cl stood at 1.07 ± 0.120 L/h/kg, the T1/2 is 13.4 ± 1.56 min and the Vd worked out at 0.284 ± 0.017 L/kg.

B11: FAP-DOTAGA: FAP sdAb (SEQ ID NO. 5) conjugated with DOTAGA, used as control for chelating imaging radioisotope (conjugate)
VHH: QVQLLESGGGLVQPGGSLRLSCAASGFGFGNSLMSWVRRAPGKGLEWVSTIYPRGSFTDYADSVKGRFTISRDNSRNTLYLQMNSLRAEDTAVYYCATGWGRSSDYDPPGQGTLVTVSS
modifications: DOTAGA chelator conjugated
In data set [2], B11 yielded an AUCall of 1.56 ± 0.088 µg·h/mL, a Cl of 0.642 ± 0.038 L/h/kg, a T1/2 of 0.486 ± 0.002 h and a Vd of 0.315 ± 0.020 L/kg.

B12: FAP-L007: FAP sdAb (SEQ ID NO. 5) conjugated with functional linker L007 (conjugate)
VHH: B11 VHH
modifications: functional linker L007 conjugated
B12: in data set [2], the AUCall stood at 45.7 ± 3.23 µg·h/mL, the Cl was determined as 0.022 ± 0.002 L/h/kg, the T1/2 amounted to 8.10 ± 0.114 h and the Vd is recorded as 0.206 ± 0.017 L/kg.

(Values after US20260216366A1, “CONJUGATE AND USES THEREOF” (Full-Life Technologies UK Limited, priority 2022, published 2026).)
